Measurements reported in article PMC3977929, “Affinity- and Specificity-Enhancing Mutations Are Frequent in Multispecific Interactions between TIMP2 and MMPs” (PLoS ONE, 2014).

Experiments:
MMP14 catalytic domain = biological target: T1, MMP14 catalytic domain (UniProt P50281 112-285); assay: enzyme activity (inhibition) assay with a fluorogenic substrate; various concentrations of N-TIMP2 pre-incubated 1 hour with MMP9 (0.2 nM) or MMP14 (0.5 nM) in 50 mM Tris-HCl, 0.15 M NaCl, 10 mM CaCl2, 0.02% Brij 35, pH 7.5, 37°C; fraction of enzyme activity fitted to a 1:1 binding model to give Kd; conditions: both partners purified
T1 construct: Matrix Metalloproteinase 14 (MMP14), catalytic domain; source: expressed recombinantly and purified as published before [12]

MMP9 catalytic domain = biological target: T2, MMP9 catalytic domain (UniProt P14780 107-444); assay: as above; conditions: both partners purified
T2 construct: Matrix Metalloproteinase 9 (MMP9), catalytic domain; source: expressed recombinantly and purified as published before [12]
T2 sequence (P14780 107-444): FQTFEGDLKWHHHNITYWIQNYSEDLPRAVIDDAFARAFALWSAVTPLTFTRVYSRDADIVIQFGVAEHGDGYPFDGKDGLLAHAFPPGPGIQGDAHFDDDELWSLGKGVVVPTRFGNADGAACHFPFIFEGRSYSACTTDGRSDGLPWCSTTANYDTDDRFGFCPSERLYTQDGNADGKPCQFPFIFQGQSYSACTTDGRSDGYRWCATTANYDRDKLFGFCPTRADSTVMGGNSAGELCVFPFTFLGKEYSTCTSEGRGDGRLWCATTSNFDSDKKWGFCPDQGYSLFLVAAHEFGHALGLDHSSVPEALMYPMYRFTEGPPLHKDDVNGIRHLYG

| Binder | Kd (MMP14 catalytic domain) [nM] | Kd (MMP9 catalytic domain) [nM] |
| --- | --- | --- |
| N-TIMP2 WT (N-terminal domain of Tissue Inhibitor of Metalloproteinases 2, residues 1-127) (domain or fragment, human, UniProt P16035 27-153, looked up, Monomeric fraction used; also called WT N-TIMP2) CSCSPVHPQQAFCNADVVIRAKAVSEKEVDSGNDIYGNPIKRIQYEIKQIKMFKGPEKDIEFIYTAPSSAVCGVSLDVGGKKEYLIAGKAEGDGKMHITLCDFIVPWDTLSTTQKKSLNHRYQMGCE | 4.5 | 0.9 |
| N-TIMP2 S4R (domain or fragment, human, UniProt P16035 27-153, looked up, TIMP2, human, N-terminal domain, residues 1-127; also called S04R) CSCRPVHPQQAFCNADVVIRAKAVSEKEVDSGNDIYGNPIKRIQYEIKQIKMFKGPEKDIEFIYTAPSSAVCGVSLDVGGKKEYLIAGKAEGDGKMHITLCDFIVPWDTLSTTQKKSLNHRYQMGCE | 2.7 | 0.55 |
| N-TIMP2 S4E (domain or fragment, human, UniProt P16035 27-153, looked up, TIMP2, human, N-terminal domain, residues 1-127; also called S04E) CSCEPVHPQQAFCNADVVIRAKAVSEKEVDSGNDIYGNPIKRIQYEIKQIKMFKGPEKDIEFIYTAPSSAVCGVSLDVGGKKEYLIAGKAEGDGKMHITLCDFIVPWDTLSTTQKKSLNHRYQMGCE | 9.5 | 15.5 |
| N-TIMP2 S4A (domain or fragment, human, UniProt P16035 27-153, looked up, TIMP2, human, N-terminal domain, residues 1-127) CSCAPVHPQQAFCNADVVIRAKAVSEKEVDSGNDIYGNPIKRIQYEIKQIKMFKGPEKDIEFIYTAPSSAVCGVSLDVGGKKEYLIAGKAEGDGKMHITLCDFIVPWDTLSTTQKKSLNHRYQMGCE | 1.4 | 0.85 |
| N-TIMP2 V6R (domain or fragment, human, UniProt P16035 27-153, looked up, TIMP2, human, N-terminal domain, residues 1-127; also called V06R) CSCSPRHPQQAFCNADVVIRAKAVSEKEVDSGNDIYGNPIKRIQYEIKQIKMFKGPEKDIEFIYTAPSSAVCGVSLDVGGKKEYLIAGKAEGDGKMHITLCDFIVPWDTLSTTQKKSLNHRYQMGCE | 1.3 | 0.5 |
| N-TIMP2 S4Q (domain or fragment, human, UniProt P16035 27-153, looked up, TIMP2, human, N-terminal domain, residues 1-127; also called S04Q) CSCQPVHPQQAFCNADVVIRAKAVSEKEVDSGNDIYGNPIKRIQYEIKQIKMFKGPEKDIEFIYTAPSSAVCGVSLDVGGKKEYLIAGKAEGDGKMHITLCDFIVPWDTLSTTQKKSLNHRYQMGCE | 1.9 | 1.39 |
| N-TIMP2 N38Q (domain or fragment, human, UniProt P16035 27-153, looked up, TIMP2, human, N-terminal domain, residues 1-127) CSCSPVHPQQAFCNADVVIRAKAVSEKEVDSGNDIYGQPIKRIQYEIKQIKMFKGPEKDIEFIYTAPSSAVCGVSLDVGGKKEYLIAGKAEGDGKMHITLCDFIVPWDTLSTTQKKSLNHRYQMGCE | 3.4 | 2.4 |
| N-TIMP2 I35E (domain or fragment, human, UniProt P16035 27-153, looked up, TIMP2, human, N-terminal domain, residues 1-127) CSCSPVHPQQAFCNADVVIRAKAVSEKEVDSGNDEYGNPIKRIQYEIKQIKMFKGPEKDIEFIYTAPSSAVCGVSLDVGGKKEYLIAGKAEGDGKMHITLCDFIVPWDTLSTTQKKSLNHRYQMGCE | 5.4 | 2.5 |
| N-TIMP2 V71N (domain or fragment, human, UniProt P16035 27-153, looked up, TIMP2, human, N-terminal domain, residues 1-127) CSCSPVHPQQAFCNADVVIRAKAVSEKEVDSGNDIYGNPIKRIQYEIKQIKMFKGPEKDIEFIYTAPSSANCGVSLDVGGKKEYLIAGKAEGDGKMHITLCDFIVPWDTLSTTQKKSLNHRYQMGCE | 6.5 | 4.68 |

These reach a lower Kd (MMP14 catalytic domain). Values come first.

| Kd (MMP14 catalytic domain) [nM] | Kd (MMP9 catalytic domain) [nM] | Binder |
| --- | --- | --- |
| 1.1 | 0.8 | N-TIMP2 S68Y (domain or fragment, human, UniProt P16035 27-153, looked up, TIMP2, human, N-terminal domain, residues 1-127) CSCSPVHPQQAFCNADVVIRAKAVSEKEVDSGNDIYGNPIKRIQYEIKQIKMFKGPEKDIEFIYTAPYSAVCGVSLDVGGKKEYLIAGKAEGDGKMHITLCDFIVPWDTLSTTQKKSLNHRYQMGCE |
| 0.32 | 0.5 | N-TIMP2 H97R (domain or fragment, human, UniProt P16035 27-153, looked up, TIMP2, human, N-terminal domain, residues 1-127) CSCSPVHPQQAFCNADVVIRAKAVSEKEVDSGNDIYGNPIKRIQYEIKQIKMFKGPEKDIEFIYTAPSSAVCGVSLDVGGKKEYLIAGKAEGDGKMRITLCDFIVPWDTLSTTQKKSLNHRYQMGCE |
| 0.91 | 0.37 | N-TIMP2 S68W (domain or fragment, human, UniProt P16035 27-153, looked up, TIMP2, human, N-terminal domain, residues 1-127) CSCSPVHPQQAFCNADVVIRAKAVSEKEVDSGNDIYGNPIKRIQYEIKQIKMFKGPEKDIEFIYTAPWSAVCGVSLDVGGKKEYLIAGKAEGDGKMHITLCDFIVPWDTLSTTQKKSLNHRYQMGCE |
| 0.38 | 0.58 | N-TIMP2 I35K (domain or fragment, human, UniProt P16035 27-153, looked up, TIMP2, human, N-terminal domain, residues 1-127) CSCSPVHPQQAFCNADVVIRAKAVSEKEVDSGNDKYGNPIKRIQYEIKQIKMFKGPEKDIEFIYTAPSSAVCGVSLDVGGKKEYLIAGKAEGDGKMHITLCDFIVPWDTLSTTQKKSLNHRYQMGCE |
| 1.05 | 1.1 | N-TIMP2 T99Y (domain or fragment, human, UniProt P16035 27-153, looked up, TIMP2, human, N-terminal domain, residues 1-127) CSCSPVHPQQAFCNADVVIRAKAVSEKEVDSGNDIYGNPIKRIQYEIKQIKMFKGPEKDIEFIYTAPSSAVCGVSLDVGGKKEYLIAGKAEGDGKMHIYLCDFIVPWDTLSTTQKKSLNHRYQMGCE |
